{"source": "paper PMC2790986", "proteins": {"B1": {"name": "PON2 (paraoxonase-2), Cys311 and Ser311 variants: N254Q (printed N254G) (protein)", "parent chain": "MGRLVAVGLLGIALALLGERLLALRNRLKASREVESVDLPHCHLIKGIEAGSEDIDILPNGLAFFSVGLKFPGLHSFAPDKPGGILMMDLKEEKPRARELRISRGFDLASFNPHGISTFIDNDDTVYLFVVNHPEFKNTVEIFKFEEAENSLLHLKTVKHELLPSVNDITAVGPAHFYATNDHYFSDPFLKYLETYLNLHWANVVYYSPNEVKVVAEGFDSANGINISPDDKYIYVADILAHEIHVLEKHTNMNLTQLKVLELDTLVDNLSIDPSSGDIWVGCHPNGQKLFVYDPNNPPSSEVLRIQNILSEKPTVTTVYANNGSVLQGSSVASVYDGKLLIGTLYHRALYCEL"}, "B2": {"name": "PON2 (paraoxonase-2), Cys311 and Ser311 variants: N323Q (protein)", "parent chain": "B1 parent chain"}, "B3": {"name": "PON2 (paraoxonase-2), Cys311 and Ser311 variants: N323A (protein)", "parent chain": "B1 parent chain"}, "B4": {"name": "PON2 (paraoxonase-2), Cys311 and Ser311 variants: N254A (protein)", "parent chain": "B1 parent chain"}, "B5": {"name": "PON2 (paraoxonase-2), Cys311 and Ser311 variants: N254A/N323A (protein)", "parent chain": "B1 parent chain"}}}
{"assay": "3OC12-HSL inactivation by CHO lysate, bioassay", "settings": "glycan lost; control: wild-type PON2 Cys311"}
{"protein": "B1", "enzymatic_activity": "no change"}
{"protein": "B2", "enzymatic_activity": "decreases"}
{"protein": "B3", "enzymatic_activity": "decreases"}
{"protein": "B4", "enzymatic_activity": "no change"}
{"protein": "B5", "enzymatic_activity": "decreases"}
